What was measured:
mouse liver = assay: Hydrodynamics-based in vivo transfection of the mouse liver
From the text: (§1) After ethical committee approval, all patients in this study gave written consent for sample collection and molecular analysis prior to inclusion. Patients were carefully selected by physicians from the Department of Cardiology, Toulouse University Hospital, prior to coronary by-pass surgery. Bioinformatics. Microarray expression data from human heart samples were downloaded from the GEO repository (GSE1145). This series consisted of 107 myocardial samples collected from patients undergoing cardiac transplantation whose failure arises from different etiologies (e.g. idiopathic dilated cardiomyopathy, ischemic cardiomyopathy, valvular cardiomyopathy, and hypertrophic cardiomyopathy) and from “normal” organ donors whose hearts cannot be used for transplants. Arrays were intensity normalized and hierarchical clustering (average group linkage, Pearson correlation, threshold r=0.8) was applied to identify groups of co-expressed genes. ApoO expression levels were plotted for the 107 human hearts tested and used to define relevant molecular pathways using both Toppgene and Ingenuity Pathway Analysis (Ingenuity systems, Redwood City, Calif., USA). ApoO subcellular localization was predicted using Mitopred, mitoprot and YLoc. Animals: All animal Studies followed the INSERM Institute Animal Facility guidelines and were approved by the animal care committees of the INSERM I2MC UMR 1048. All animal procedures were performed according to the guidelines of the French Ministry of Agriculture. Animals were housed at the Toulouse I2MC animal facility in a room lit 12 h per day (6 AM-6 PM) at an ambient temperature of 22+/−1° C. Construction of ApoO Expression Vectors To overexpress human ApoO (pTT-ApoO), the ApoO coding sequence was amplified using primers hApoO5BamPTT (SEQ ID NO: 2) and hApoO3BamPTT (SEQ ID NO: 3) and cloned into the BamH1 site of pTT expression vector. pSNAP-ApoO was generated by PCR amplification of pTT-ApoO using primers SnapApoEcorV-F (SEQ ID NO: 4) and SnapApoEcorV-R (SEQ ID NO: 5) and cloned into the EcoRV site of pSNAP-Tag® (Ozyme, Saint-Quentin-en-Yvelines, France). pGEX2T-ApoO was constructed by PCR amplification of pTT-ApoO using hApoOpGEX1FBam (SEQ ID NO: 6) and hApoOpGEX1RSma (SEQ ID NO: 7) and cloned into the Bam HI/Sma I site of pGEX2T (Promega, Charbonnières-les-Bains). All primers used in this work were synthesized by Eurogentec France (Angers). All restriction enzymes used were from New England Biolabs (Ozyme, Saint-Quentin-en-Yvelines). All ApoO sequences within the expression vectors were verified by DNA double strand sequencing using ABI PRISM®BigDye™ Terminator version 3.1 Ready reaction cycle sequencing kit (Life Technologies SAS, Villebon sur Yvette) and loaded on an ABI 3130XL DNA sequencing instrument (Life Technologies SAS, Villebon sur Yvette). Cell Culture and Tranfection of H9C2 Cardic Myoblasts H9c2 were obtained from the European Collection of Cell Cultures (Salisbury, England). H9c2 cells were cultured in Dulbecco's modified Eagle medium (Life Technologies SAS, Villebon sur Yvette) adjusted to contain 1.5 g/liter sodium bicarbonate and supplemented with antibiotic-antimycotic solution (Life Technologies SAS, Villebon sur Yvette) and 10% fetal bovine serum (FBS, AbCys s.a., Paris). Cells were plated on 10-cm diameter tissue culture dish and grown in a 5% CO2 incubator at 37° C. with saturating humidity with medium changes every 2 days. […]

cytochrome C oxidase = assay: Cytochrome C oxidase activity in cardiac myoblasts; assay type: cell-based; conditions: ApoO cells vs control
From the text: (§2) After ethical committee approval, all patients in this study gave written consent for sample collection and molecular analysis prior to inclusion. Patients were carefully selected by physicians from the Department of Cardiology, Toulouse University Hospital, prior to coronary by-pass surgery. Bioinformatics. Microarray expression data from human heart samples were downloaded from the GEO repository (GSE1145). This series consisted of 107 myocardial samples collected from patients undergoing cardiac transplantation whose failure arises from different etiologies (e.g. idiopathic dilated cardiomyopathy, ischemic cardiomyopathy, valvular cardiomyopathy, and hypertrophic cardiomyopathy) and from “normal” organ donors whose hearts cannot be used for transplants. Arrays were intensity normalized and hierarchical clustering (average group linkage, Pearson correlation, threshold r=0.8) was applied to identify groups of co-expressed genes. […] All ApoO sequences within the expression vectors were verified by DNA double strand sequencing using ABI PRISM®BigDye™ Terminator version 3.1 Ready reaction cycle sequencing kit (Life Technologies SAS, Villebon sur Yvette) and loaded on an ABI 3130XL DNA sequencing instrument (Life Technologies SAS, Villebon sur Yvette). […]

Caspase-3 = Caspase-3 enzymatic activity in H9c2 cardiac myoblasts; assay type: cell-based
From the text: After ethical committee approval, all patients in this study gave written consent for sample collection and molecular analysis prior to inclusion. Patients were carefully selected by physicians from the Department of Cardiology, Toulouse University Hospital, prior to coronary by-pass surgery. Bioinformatics. Microarray expression data from human heart samples were downloaded from the GEO repository (GSE1145). This series consisted of 107 myocardial samples collected from patients undergoing cardiac transplantation whose failure arises from different etiologies (e.g. idiopathic dilated cardiomyopathy, ischemic cardiomyopathy, valvular cardiomyopathy, and hypertrophic cardiomyopathy) and from “normal” organ donors whose hearts cannot be used for transplants. Arrays were intensity normalized and hierarchical clustering (average group linkage, Pearson correlation, threshold r=0.8) was applied to identify groups of co-expressed genes. ApoO expression levels were plotted for the 107 human hearts tested and used to define relevant molecular pathways using both Toppgene and Ingenuity Pathway Analysis (Ingenuity systems, Redwood City, Calif., USA). ApoO subcellular localization was predicted using Mitopred, mitoprot and YLoc. Animals: All animal Studies followed the INSERM Institute Animal Facility guidelines and were approved by the animal care committees of the INSERM I2MC UMR 1048. All animal procedures were performed according to the guidelines of the French Ministry of Agriculture. Animals were housed at the Toulouse I2MC animal facility in a room lit 12 h per day (6 AM-6 PM) at an ambient temperature of 22+/−1° C. […] All ApoO sequences within the expression vectors were verified by DNA double strand sequencing using ABI PRISM®BigDye™ Terminator version 3.1 Ready reaction cycle sequencing kit (Life Technologies SAS, Villebon sur Yvette) and loaded on an ABI 3130XL DNA sequencing instrument (Life Technologies SAS, Villebon sur Yvette). […]

[1] = system: long-chain acyl-CoA synthetase (ACSL); assay: Acyl-CoA synthetase activity in cardiac myoblasts; assay type: cell-based; conditions: ApoO cells vs control (FIG. 6C)
From the text: as §2

mouse heart = assay: Cardiac specific human ApoO transgenic mice (ApoO-Tg); assay type: in vivo
From the text: After ethical committee approval, all patients in this study gave written consent for sample collection and molecular analysis prior to inclusion. Patients were carefully selected by physicians from the Department of Cardiology, Toulouse University Hospital, prior to coronary by-pass surgery. Bioinformatics. Microarray expression data from human heart samples were downloaded from the GEO repository (GSE1145). This series consisted of 107 myocardial samples collected from patients undergoing cardiac transplantation whose failure arises from different etiologies (e.g. idiopathic dilated cardiomyopathy, ischemic cardiomyopathy, valvular cardiomyopathy, and hypertrophic cardiomyopathy) and from “normal” organ donors whose hearts cannot be used for transplants. Arrays were intensity normalized and hierarchical clustering (average group linkage, Pearson correlation, threshold r=0.8) was applied to identify groups of co-expressed genes. ApoO expression levels were plotted for the 107 human hearts tested and used to define relevant molecular pathways using both Toppgene and Ingenuity Pathway Analysis (Ingenuity systems, Redwood City, Calif., USA). ApoO subcellular localization was predicted using Mitopred, mitoprot and YLoc. Animals: All animal Studies followed the INSERM Institute Animal Facility guidelines and were approved by the animal care committees of the INSERM I2MC UMR 1048. All animal procedures were performed according to the guidelines of the French Ministry of Agriculture. Animals were housed at the Toulouse I2MC animal facility in a room lit 12 h per day (6 AM-6 PM) at an ambient temperature of 22+/−1° C. Construction of ApoO Expression Vectors To overexpress human ApoO (pTT-ApoO), the ApoO coding sequence was amplified using primers hApoO5BamPTT (SEQ ID NO: 2) and hApoO3BamPTT (SEQ ID NO: 3) and cloned into the BamH1 site of pTT expression vector. pSNAP-ApoO was generated by PCR amplification of pTT-ApoO using primers SnapApoEcorV-F (SEQ ID NO: 4) and SnapApoEcorV-R (SEQ ID NO: 5) and cloned into the EcoRV site of pSNAP-Tag® (Ozyme, Saint-Quentin-en-Yvelines, France). pGEX2T-ApoO was constructed by PCR amplification of pTT-ApoO using hApoOpGEX1FBam (SEQ ID NO: 6) and hApoOpGEX1RSma (SEQ ID NO: 7) and cloned into the Bam HI/Sma I site of pGEX2T (Promega, Charbonnières-les-Bains). All primers used in this work were synthesized by Eurogentec France (Angers). All restriction enzymes used were from New England Biolabs (Ozyme, Saint-Quentin-en-Yvelines). All ApoO sequences within the expression vectors were verified by DNA double strand sequencing using ABI PRISM®BigDye™ Terminator version 3.1 Ready reaction cycle sequencing kit (Life Technologies SAS, Villebon sur Yvette) and loaded on an ABI 3130XL DNA sequencing instrument (Life Technologies SAS, Villebon sur Yvette). Cell Culture and Tranfection of H9C2 Cardic Myoblasts H9c2 were obtained from the European Collection of Cell Cultures (Salisbury, England). H9c2 cells were cultured in Dulbecco's modified Eagle medium (Life Technologies SAS, Villebon sur Yvette) adjusted to contain 1.5 g/liter sodium bicarbonate and supplemented with antibiotic-antimycotic solution (Life Technologies SAS, Villebon sur Yvette) and 10% fetal bovine serum (FBS, AbCys s.a., Paris). Cells were plated on 10-cm diameter tissue culture dish and grown in a 5% CO2 incubator at 37° C. with saturating humidity with medium changes every 2 days. H9c2 cardiomyoblasts were stably transfected by electroporation and pools of tranfectants were selected as previously published. Knock-Down of ApoO Overexpression shRNA used to knock-down ApoO gene expression and controls were from MISSION shRNA set; Sh2=TRCN 72707; Sh4=TRCN 72704; Sh5=TRCN 72705 (Sigma Aldrich, Saint-Quentin Fallavier) and used as recommended by generating pools of stable transfectants. Empty vector (no shRNA insert) control was also transfected and had no significant effect. […]

glioblastoma cells = assay: Basal oxygen consumption in glioblastoma cells; assay type: cell-based; conditions: cells which express ApoO vs cells treated with shApoO (FIG. 14)
From the text: Further, the inventors decided to investigate the effect of transforming gliobastoma cells so that they express ApoO. For this purpose, glioblastoma cells were transformed with an adeno-associated virus 9 comprising a polynucleotide encoding ApoO.
The inventors compared the oxygen consumption after treating glioblastoma cells with a short hairpin RNA (shApoO) silencing the expression of ApoO.

cardiac myoblasts [2] = assay: Reactive oxygen species assessment (carboxy-DCFDA) in cardiac myoblasts; assay type: cell-based; conditions: ApoO cells vs control (FIG. 4D)
From the text: as §2

MPTP = assay: Mitochondrial calcein-cobalt assay of MPTP opening; assay type: cell-based; conditions: cultured cardiac myoblasts
cardiac myoblasts [3] = assay: Transmission electron microscopy of cardiac myoblasts; assay type: cell-based; conditions: ApoO cells
From the text: as §2

H9c2 cardiac myoblasts = assay: Measurement of O2 consumption (Oroboros Oxygraph-2k) in cardiac myoblasts; assay type: cell-based
From the text: as §1

- activity of Caspase-3 (Caspase-3; ApoO cells vs control (FIG. 9g)): increase
- apoptotic effect of increasing doses of palmitate (Caspase-3 activity) (Caspase-3; ApoO overexpressing cells vs control (FIG. 9h)): dramatically amplified
- long-chain acyl-CoA synthetase (ACSL) activity [1]: strongly increased
- Caspase-3 activity in heart (mouse heart; ApoO-Tg vs WT (FIG. 9c)): enhanced
B1: ApoO: 198-amino acid apolipoprotein, SEQ ID NO: 1; tested by overexpression from expression vectors or transgene (protein, listed as Homo sapiens)
chain: MFKVIQRSVGPASLSLLTFKVYAAPKKDSPPKNSVKVDELSLYSVPEGQSKYVEEARSQLEESISQLRHYCEPYTTWCQETYSQTKPKMQSLVQWGLDSYDYLQNAPPGFFPRLGVIGFAGLIGLLLARGSKIKKLVYPPGFMGLAASLYYPQQAIVFAQVSGERLYDWGLRGYIVIEDLWKENFQKPGNVKNSPGTK
- Caspase-3 activity in liver (mouse liver; 48 hours after transfection (FIG. 9e)): confirmed
- Bax expression in liver (mouse liver; 48 hours after transfection (FIG. 9d)): confirmed
- diglyceride levels in liver (mouse liver; ApoO transfected liver vs control vector (FIG. 8c)): increased
- intracellular triglycerides in liver (mouse liver; ApoO transfected liver vs control vector (FIG. 8d)): did not significantly modify
- oxygen consumption of isolated liver mitochondria (mouse liver; in vivo transfected mouse liver): significant increase
- cytochrome C oxidase activity (cytochrome C oxidase): increase
- cytochrome C oxidase activity in heart (mouse heart; ApoO-Tg hearts): increase
- diglyceride levels in heart (mouse heart; ApoO-Tg vs WT (FIG. 8a)): increased
- intracellular triglycerides in heart (mouse heart; ApoO-Tg vs WT (FIG. 8b)): did not significantly modify
- Bax expression in heart (mouse heart; ApoO-Tg vs WT (FIG. 9b)): enhanced
- ACSL activity in heart (mouse heart; hearts from ApoO-Tg mice): significant increase
- fatty acid transporter expression in heart (mouse heart; hearts from ApoO-Tg mice): significant increase
- calcium retention capacity (mouse heart; mitochondria isolated from ApoO-Tg mice hearts): significantly diminished
- oxygen consumption (glioblastoma cells): more important
- intracellular reactive oxygen species (ROS) (cardiac myoblasts [2]): increases
- kinetics of MPTP opening (MPTP): alters the kinetics of MPTP opening
- plasma membrane morphology (TEM) (cardiac myoblasts [3]): formation of blebs
- basal oxygen consumption (H9c2 cardiac myoblasts; ApoO cells vs control cardiac myoblasts (FIG. 4A)): two-fold increase
- respiration coupling (RC) (H9c2 cardiac myoblasts; ApoO cells vs control, CCCP / oligomycin oxygen consumption (FIG. 4C)): decreases

From patent publication US10272135B2, “Apolipoprotein O and fragments thereof for inducing apoptosis in a cancerous cell” (INSERM (INSTITUT NATIONAL DE LA SANTÉ ET DE LA RECHERCHE …, priority 2014, dated 2019)
